Experimental findings from PMC6391106, “Hyperfunctional complement C3 promotes C5-dependent atypical hemolytic uremic syndrome in mice” (The Journal of Clinical Investigation, 2019) are described below.

B1: murine C3b Asn1115 (complex)
chain 1: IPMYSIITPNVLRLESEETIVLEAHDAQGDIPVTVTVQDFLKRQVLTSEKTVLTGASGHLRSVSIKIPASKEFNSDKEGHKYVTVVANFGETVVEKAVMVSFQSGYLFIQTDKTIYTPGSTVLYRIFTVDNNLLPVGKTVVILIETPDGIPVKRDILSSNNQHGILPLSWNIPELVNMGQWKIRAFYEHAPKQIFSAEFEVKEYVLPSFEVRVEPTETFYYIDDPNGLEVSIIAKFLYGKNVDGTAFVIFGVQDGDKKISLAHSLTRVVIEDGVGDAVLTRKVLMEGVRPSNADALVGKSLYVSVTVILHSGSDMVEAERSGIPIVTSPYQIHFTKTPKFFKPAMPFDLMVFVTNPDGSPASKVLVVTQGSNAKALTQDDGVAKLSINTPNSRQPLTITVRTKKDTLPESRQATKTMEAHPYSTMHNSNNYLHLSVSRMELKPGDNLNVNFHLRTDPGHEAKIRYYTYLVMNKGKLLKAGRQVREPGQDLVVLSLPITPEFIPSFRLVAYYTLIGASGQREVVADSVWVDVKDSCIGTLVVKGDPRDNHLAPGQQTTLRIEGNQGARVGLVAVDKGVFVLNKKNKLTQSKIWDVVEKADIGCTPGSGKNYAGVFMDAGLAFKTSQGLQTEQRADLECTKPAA
chain 2: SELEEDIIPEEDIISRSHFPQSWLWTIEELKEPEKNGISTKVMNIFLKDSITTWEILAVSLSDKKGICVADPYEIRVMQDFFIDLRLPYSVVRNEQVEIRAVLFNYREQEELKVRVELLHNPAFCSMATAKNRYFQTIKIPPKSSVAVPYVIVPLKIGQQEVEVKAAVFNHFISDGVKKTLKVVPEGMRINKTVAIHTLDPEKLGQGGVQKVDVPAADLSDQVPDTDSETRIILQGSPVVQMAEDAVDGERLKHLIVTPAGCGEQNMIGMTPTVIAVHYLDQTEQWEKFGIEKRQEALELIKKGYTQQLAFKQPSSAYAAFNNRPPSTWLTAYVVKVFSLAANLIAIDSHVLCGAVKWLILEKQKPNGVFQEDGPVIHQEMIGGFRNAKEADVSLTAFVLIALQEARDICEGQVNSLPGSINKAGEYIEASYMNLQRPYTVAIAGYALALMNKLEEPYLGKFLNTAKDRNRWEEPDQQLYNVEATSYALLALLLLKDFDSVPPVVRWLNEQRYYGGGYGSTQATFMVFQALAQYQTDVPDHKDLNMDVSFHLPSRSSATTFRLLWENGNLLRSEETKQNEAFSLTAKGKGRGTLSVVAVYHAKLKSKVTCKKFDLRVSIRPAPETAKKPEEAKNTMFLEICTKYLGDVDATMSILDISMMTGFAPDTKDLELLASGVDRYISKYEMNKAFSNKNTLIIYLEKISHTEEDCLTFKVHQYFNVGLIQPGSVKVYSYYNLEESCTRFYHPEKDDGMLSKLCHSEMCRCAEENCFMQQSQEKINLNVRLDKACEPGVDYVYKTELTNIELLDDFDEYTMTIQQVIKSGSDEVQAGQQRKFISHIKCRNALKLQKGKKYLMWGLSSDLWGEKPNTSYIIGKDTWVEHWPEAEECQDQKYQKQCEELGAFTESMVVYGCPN
modifications: C3b made from plasma-purified C3 by factor B/factor D cleavage (C3a released); beta and alpha' chains disulfide-linked; thioester (Cys1010-Gln1013) hydrolysed; N-glycosylated; amine-coupled to CM5 …

What all share (assay): SPR; BIAcore S200; murine C3b (WT or Asn1115) amine coupled to a CM5 chip (930 ± 10 RU); analytes in 2-fold dilution series in HBST (10 mM HEPES, 150 mM NaCl, 0.005% Tween-20, pH 7.4), 30 μl/min for 200 s; steady-state model
Details in all cases: both partners purified
In general terms: Surface plasmon resonance follows binding to a sensor surface in real time, without labels.

The target in assay [1] is T1, recombinant murine FH SCRs 1–5 (mouse).
T1 construct: mouse complement factor H, short consensus repeats 1–5; also called recombinant mouse FH1–5; mFH SCRs 1–5; source: recombinant

Assay [2] concerns the target T2, recombinant murine Crry SCRs 1–5 (mouse).
T2 construct: mouse Crry (complement receptor 1-related protein), short consensus repeats 1–5; also called recombinant mouse Crry; mouse Crry; source: recombinant

The assay “murine C3b Asn1115” has as its target B1.

Chain of murine C3b Asn1115 (P01027 749-1663, change not shown, chain 1 of 2): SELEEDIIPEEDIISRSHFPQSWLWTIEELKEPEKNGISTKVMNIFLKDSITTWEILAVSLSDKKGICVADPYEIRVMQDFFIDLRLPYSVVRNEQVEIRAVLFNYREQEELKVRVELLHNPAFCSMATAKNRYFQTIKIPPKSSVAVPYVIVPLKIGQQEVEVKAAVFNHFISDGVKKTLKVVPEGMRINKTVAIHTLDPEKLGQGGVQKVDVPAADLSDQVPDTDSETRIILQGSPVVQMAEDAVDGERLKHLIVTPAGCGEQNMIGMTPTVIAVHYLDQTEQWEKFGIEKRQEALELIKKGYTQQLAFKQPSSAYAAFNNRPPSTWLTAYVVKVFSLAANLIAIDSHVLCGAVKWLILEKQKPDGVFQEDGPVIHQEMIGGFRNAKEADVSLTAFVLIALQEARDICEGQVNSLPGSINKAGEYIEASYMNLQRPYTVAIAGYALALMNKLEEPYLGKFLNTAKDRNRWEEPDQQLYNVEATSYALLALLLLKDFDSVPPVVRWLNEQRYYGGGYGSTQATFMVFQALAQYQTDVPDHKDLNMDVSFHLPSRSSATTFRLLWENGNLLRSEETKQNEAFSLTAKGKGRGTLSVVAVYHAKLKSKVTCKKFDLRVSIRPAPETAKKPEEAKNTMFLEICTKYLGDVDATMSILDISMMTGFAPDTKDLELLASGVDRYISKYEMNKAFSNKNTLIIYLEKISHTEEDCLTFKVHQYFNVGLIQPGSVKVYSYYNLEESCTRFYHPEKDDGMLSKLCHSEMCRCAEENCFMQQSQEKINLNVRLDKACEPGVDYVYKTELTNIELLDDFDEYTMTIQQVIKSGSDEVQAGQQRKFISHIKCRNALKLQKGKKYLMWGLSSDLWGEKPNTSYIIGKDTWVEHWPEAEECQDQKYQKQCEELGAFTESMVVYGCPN
Chain of murine C3b Asn1115 (P01027 749-1663 D1115N, chain 2 of 2): as the sequence (P01027 749-1663, change not shown, chain 1 of 2) above, with D367N counted along it
T2 sequence (P01027 749-1663, change not shown, chain 1 of 2): as the sequence (P01027 749-1663, change not shown, chain 1 of 2) above
T2 sequence (P01027 749-1663 D1115N, chain 2 of 2): as the sequence (P01027 749-1663, change not shown, chain 1 of 2) above, with D367N counted along it

What is called Kd is the constant that tells how readily two partners part at equilibrium. On to B1, for which the Kd in assay [1] came to 3.1 µM; in assay [2], 3.5 µM.

B2: full-length mouse serum-derived FH (natural protein, UniProt P06909 19-1234, looked up)
chain: EDCKGPPPRENSEILSGSWSEQLYPEGTQATYKCRPGYRTLGTIVKVCKNGKWVASNPSRICRKKPCGHPGDTPFGSFRLAVGSQFEFGAKVVYTCDDGYQLLGEIDYRECGADGWINDIPLCEVVKCLPVTELENGRIVSGAAETDQEYYFGQVVRFECNSGFKIEGHKEIHCSENGLWSNEKPRCVEILCTPPRVENGDGINVKPVYKENERYHYKCKHGYVPKERGDAVCTGSGWSSQPFCEEKRCSPPYILNGIYTPHRIIHRSDDEIRYECNYGFYPVTGSTVSKCTPTGWIPVPRCTLKPCEFPQFKYGRLYYEESLRPNFPVSIGNKYSYKCDNGFSPPSGYSWDYLRCTAQGWEPEVPCVRKCVFHYVENGDSAYWEKVYVQGQSLKVQCYNGYSLQNGQDTMTCTENGWSPPPKCIRIKTCSASDIHIDNGFLSESSSIYALNRETSYRCKQGYVTNTGEISGSITCLQNGWSPQPSCIKSCDMPVFENSITKNTRTWFKLNDKLDYECLVGFENEYKHTKGSITCTYYGWSDTPSCYERECSVPTLDRKLVVSPRKEKYRVGDLLEFSCHSGHRVGPDSVQCYHFGWSPGFPTCKGQVASCAPPLEILNGEINGAKKVEYSHGEVVKYDCKPRFLLKGPNKIQCVDGNWTTLPVCIEEERTCGDIPELEHGSAKCSVPPYHHGDSVEFICEENFTMIGHGSVSCISGKWTQLPKCVATDQLEKCRVLKSTGIEAIKPKLTEFTHNSTMDYKCRDKQEYERSICINGKWDPEPNCTSKTSCPPPPQIPNTQVIETTVKYLDGEKLSVLCQDNYLTQDSEEMVCKDGRWQSLPRCIEKIPCSQPPTIEHGSINLPRSSEERRDSIESSSHEHGTTFSYVCDDGFRIPEENRITCYMGKWSTPPRCVGLPCGPPPSIPLGTVSLELESYQHGEEVTYHCSTGFGIDGPAFIICEGGKWSDPPKCIKTDCDVLPTVKNAIIRGKSKKSYRTGEQVTFRCQSPYQMNGSDTVTCVNSRWIGQPVCKDNSCVDPPHVPNATIVTRTKNKYLHGDRVRYECNKPLELFGQVEVMCENGIWTEKPKCRDSTGKCGPPPPIDNGDITSLSLPVYEPLSSVEYQCQKYYLLKGKKTITCRNGKWSEPPTCLHACVIPENIMESHNIILKWRHTEKIYSHSGEDIEFGCKYGYYKARDSPPFRTKCINGTINYPTCV
notes: mouse complement factor H, full length, from serum; also called murine FH; mouse FH
Turning to B2, the Kd in the assay with murine C3b Asn1115 was determined as 3.7 µM.
